This passage reports abundance fitness results from the Human Domainome abundance scans (Beltran et al. 2025).

± gives the uncertainty stated by the source.

Sequences and labels used below:
B1: Bromodomain adjacent to zinc finger domain protein 2B, residues 1927 to 1982; numbered along this chain, Q9UIF8 (parent)
chain: KSIMKVYCQICRKGDNEELLLLCDGCDKGCHTYCHRPKITTIPDGDWFCPACIAKA

This data set covers variants of B1. The experiment in a line: abundance fitness (aPCA) (normalised: wild type 0, dead -1); higher = more abundant; growth selection in yeast, the domain comes from the species named. The conditions noted are these: Homo sapiens.
Take YSIMKVYCQICRKGDNEELLLLCDGCDKGCHTYCHRPKITTIPDGDWFCPACIAKA [K1Y]: the abundance fitness was -0.318 ± 0.34. As for SSIMKVYCQICRKGDNEELLLLCDGCDKGCHTYCHRPKITTIPDGDWFCPACIAKA [K1S], the abundance fitness was -0.176 ± 0.14. In the case of TSIMKVYCQICRKGDNEELLLLCDGCDKGCHTYCHRPKITTIPDGDWFCPACIAKA [K1T] it was -0.155 ± 0.25; in that of VSIMKVYCQICRKGDNEELLLLCDGCDKGCHTYCHRPKITTIPDGDWFCPACIAKA [K1V], -0.581 ± 0.36. Turning to RSIMKVYCQICRKGDNEELLLLCDGCDKGCHTYCHRPKITTIPDGDWFCPACIAKA [K1R], the abundance fitness was -0.366 ± 0.12. In the case of KSLMKVYCQICRKGDNEELLLLCDGCDKGCHTYCHRPKITTIPDGDWFCPACIAKA [I3L] it was -0.189 ± 0.075.

As to KSTMKVYCQICRKGDNEELLLLCDGCDKGCHTYCHRPKITTIPDGDWFCPACIAKA [I3T], the abundance fitness was -0.063 ± 0.1. In the case of KSYMKVYCQICRKGDNEELLLLCDGCDKGCHTYCHRPKITTIPDGDWFCPACIAKA [I3Y] it was -0.327 ± 0.16. In the case of KSEMKVYCQICRKGDNEELLLLCDGCDKGCHTYCHRPKITTIPDGDWFCPACIAKA [I3E] it was -0.103 ± 0.087. In the case of KSSMKVYCQICRKGDNEELLLLCDGCDKGCHTYCHRPKITTIPDGDWFCPACIAKA [I3S] it was -0.052 ± 0.076. With KSPMKVYCQICRKGDNEELLLLCDGCDKGCHTYCHRPKITTIPDGDWFCPACIAKA [I3P], the abundance fitness was -0.081 ± 0.096. KSFMKVYCQICRKGDNEELLLLCDGCDKGCHTYCHRPKITTIPDGDWFCPACIAKA [I3F]: the abundance fitness was -0.282 ± 0.2. In the case of KSDMKVYCQICRKGDNEELLLLCDGCDKGCHTYCHRPKITTIPDGDWFCPACIAKA [I3D] it was 0.059 ± 0.14. In the case of KSWMKVYCQICRKGDNEELLLLCDGCDKGCHTYCHRPKITTIPDGDWFCPACIAKA [I3W] it was -0.221 ± 0.092. In the case of KSMMKVYCQICRKGDNEELLLLCDGCDKGCHTYCHRPKITTIPDGDWFCPACIAKA [I3M] it was -0.088 ± 0.11; in that of KSHMKVYCQICRKGDNEELLLLCDGCDKGCHTYCHRPKITTIPDGDWFCPACIAKA [I3H], -0.144 ± 0.13; in that of KSQMKVYCQICRKGDNEELLLLCDGCDKGCHTYCHRPKITTIPDGDWFCPACIAKA [I3Q], 0.104 ± 0.17. Consider KSCMKVYCQICRKGDNEELLLLCDGCDKGCHTYCHRPKITTIPDGDWFCPACIAKA [I3C], for which the abundance fitness was -0.129 ± 0.14. With KSRMKVYCQICRKGDNEELLLLCDGCDKGCHTYCHRPKITTIPDGDWFCPACIAKA [I3R], the abundance fitness was -0.125 ± 0.066. In the case of KSAMKVYCQICRKGDNEELLLLCDGCDKGCHTYCHRPKITTIPDGDWFCPACIAKA [I3A] it was 0.014 ± 0.077; in that of KSNMKVYCQICRKGDNEELLLLCDGCDKGCHTYCHRPKITTIPDGDWFCPACIAKA [I3N], 0.105 ± 0.15; in that of KSVMKVYCQICRKGDNEELLLLCDGCDKGCHTYCHRPKITTIPDGDWFCPACIAKA [I3V], -0.079 ± 0.064. As to KSIMGVYCQICRKGDNEELLLLCDGCDKGCHTYCHRPKITTIPDGDWFCPACIAKA [K5G], the abundance fitness is -0.077 ± 0.079. In the case of KSIMMVYCQICRKGDNEELLLLCDGCDKGCHTYCHRPKITTIPDGDWFCPACIAKA [K5M] it was -0.083 ± 0.13; in that of KSIMCVYCQICRKGDNEELLLLCDGCDKGCHTYCHRPKITTIPDGDWFCPACIAKA [K5C], -0.125 ± 0.13; in that of KSIMRVYCQICRKGDNEELLLLCDGCDKGCHTYCHRPKITTIPDGDWFCPACIAKA [K5R], -0.095 ± 0.084. In the case of KSIMPVYCQICRKGDNEELLLLCDGCDKGCHTYCHRPKITTIPDGDWFCPACIAKA [K5P] it was -0.198 ± 0.1; in that of KSIMWVYCQICRKGDNEELLLLCDGCDKGCHTYCHRPKITTIPDGDWFCPACIAKA [K5W], -0.303 ± 0.11.

Take KSIMQVYCQICRKGDNEELLLLCDGCDKGCHTYCHRPKITTIPDGDWFCPACIAKA [K5Q]: the abundance fitness is -0.113 ± 0.099.

Turning to KSIMNVYCQICRKGDNEELLLLCDGCDKGCHTYCHRPKITTIPDGDWFCPACIAKA [K5N], the abundance fitness was -0.035 ± 0.16.

On to KSIMDVYCQICRKGDNEELLLLCDGCDKGCHTYCHRPKITTIPDGDWFCPACIAKA [K5D], for which the abundance fitness was -0.162 ± 0.13. For KSIMFVYCQICRKGDNEELLLLCDGCDKGCHTYCHRPKITTIPDGDWFCPACIAKA [K5F], the abundance fitness is -0.444 ± 0.15. In the case of KSIMVVYCQICRKGDNEELLLLCDGCDKGCHTYCHRPKITTIPDGDWFCPACIAKA [K5V] it was -0.176 ± 0.078; in that of KSIMEVYCQICRKGDNEELLLLCDGCDKGCHTYCHRPKITTIPDGDWFCPACIAKA [K5E], -0.156 ± 0.12; in that of KSIMSVYCQICRKGDNEELLLLCDGCDKGCHTYCHRPKITTIPDGDWFCPACIAKA [K5S], -0.019 ± 0.091. In the case of KSIMTVYCQICRKGDNEELLLLCDGCDKGCHTYCHRPKITTIPDGDWFCPACIAKA [K5T] it was -0.056 ± 0.089. On to KSIMAVYCQICRKGDNEELLLLCDGCDKGCHTYCHRPKITTIPDGDWFCPACIAKA [K5A], for which the abundance fitness was -0.158 ± 0.094. In the case of KSIMIVYCQICRKGDNEELLLLCDGCDKGCHTYCHRPKITTIPDGDWFCPACIAKA [K5I], the abundance fitness is -0.334 ± 0.17. In the case of KSIMLVYCQICRKGDNEELLLLCDGCDKGCHTYCHRPKITTIPDGDWFCPACIAKA [K5L] it was -0.202 ± 0.08; in that of KSIMKVECQICRKGDNEELLLLCDGCDKGCHTYCHRPKITTIPDGDWFCPACIAKA [Y7E], -0.018 ± 0.085; in that of KSIMKVDCQICRKGDNEELLLLCDGCDKGCHTYCHRPKITTIPDGDWFCPACIAKA [Y7D], 0.142 ± 0.099. In the case of KSIMKVCCQICRKGDNEELLLLCDGCDKGCHTYCHRPKITTIPDGDWFCPACIAKA [Y7C] it was -0.136 ± 0.13. In the case of KSIMKVACQICRKGDNEELLLLCDGCDKGCHTYCHRPKITTIPDGDWFCPACIAKA [Y7A] it was -0.09 ± 0.073; in that of KSIMKAYCQICRKGDNEELLLLCDGCDKGCHTYCHRPKITTIPDGDWFCPACIAKA [V6A], -0.132 ± 0.1; in that of KSIMKGYCQICRKGDNEELLLLCDGCDKGCHTYCHRPKITTIPDGDWFCPACIAKA [V6G], -0.045 ± 0.072. Consider KSIMKFYCQICRKGDNEELLLLCDGCDKGCHTYCHRPKITTIPDGDWFCPACIAKA [V6F], for which the abundance fitness came out at 0.064 ± 0.2. In the case of KSIMKSYCQICRKGDNEELLLLCDGCDKGCHTYCHRPKITTIPDGDWFCPACIAKA [V6S] it was 0.014 ± 0.092.
